B1: Pistol ribozyme (parent)
chain: GGGUCGUUGUUCCAUAAUCGCGUGGAUAUGGCACGCAAGUUUCUACCGGGCACCGUAAAUGUCCGACUGGAGCCGUUCGGGCGGCUAUAAACAGACCUCAGGCCCGAAGCGUGGCGGCACCUGCCGCCGGUGGUAAAAAAGAUCGGAAGAGCACACGUCU

Variants of: B1
Test: aptazyme ON/OFF ratio, guanine; higher = stronger switching; co-transcriptional cleavage with and without guanine

| Variant | aptazyme ON/OFF ratio |
| --- | --- |
| U7A U8C G9A U10A U11A C12A C13A | 1.11 |
| U7A U8C G9A U10A U11A C12A C13U | 1.25 |
| U7A U8C G9A U10A U11A C12A C13G | 1.18 |
| U7A U8C G9A U10A U11A C12A | 1.31 |
| U7A U8C G9A U10A U11A C12G | 1.24 |
| U7A U8C G9A U10A U11A C12U | 1.25 |
| U7A U8C G9A U10A U11G C12A C13U | 1.16 |
| U7A U8C G9A U10A U11G C12A C13G | 1.23 |
| U7A U8C G9A U10A U11G C12A C13A | 1.08 |
| U7A U8A U11C C13A | 1.4 |
| U7A U8A U11C C13U | 1.23 |
| U7A U8A U11C C13G | 1.09 |
| U7A U8C G9A C13G | 1.04 |
| U7A U8C G9A C13U | 1.18 |
| U7A U8C G9A C13A | 1.14 |
| U7A U8C G9A U10A U11G | 1.26 |
| U7A U8C G9A U10A U11C | 1.07 |
| U7A U8C G9A U10A U11A | 1.19 |
| U7A U8A U10G U11G C12A | 1.3 |
| U7A U8A U10G U11G C12U | 1.46 |
| U7A U8A U10G U11G C12G | 1.33 |

| Variant | aptazyme ON/OFF ratio |
| --- | --- |
| U7A U8C | 1.98 |
| U7A U8A U11C C12U C13U | 1.59 |
| U7A U8A U11C C12U C13A | 1.21 |
| U7A U8A U11C C12U C13G | 1.21 |
| U7A U8A U11A C12G C13A | 1.17 |
| U7A U8A U11A C12G C13U | 1.16 |
| U7A U8A U11A C12G C13G | 1.13 |
| U7A U8A U11G C12U C13G | 1.25 |
| U7A U8A U11G C12U C13U | 1.35 |
| U7A U8A U11G C12U C13A | 1.2 |
| U7A U8C G9A U10A U11G C12G | 1.16 |
| U7A U8C G9A U10A U11G C12A | 1.06 |
| U7A U8C G9A U10A U11G C12U | 1.45 |
| U7A U8A U11G C13G | 1.1 |
| U7A U8A U11G C13U | 1.2 |
| U7A U8A U11G C13A | 1.16 |
| U7A U8C G9A U10A U11A C13G | 1.12 |
| U7A U8C G9A U10A U11A C13U | 1.18 |
| U7A U8C G9A U10A U11A C13A | 1.35 |
| U7A U8C G9A U10A U11G C12G C13U | 1.11 |
| U7A U8C G9A U10A U11G C12G C13A | 1.11 |

| Variant | aptazyme ON/OFF ratio |
| --- | --- |
| U7A U8C G9A U10A U11G C12G C13G | 1.31 |
| U7A U8C C12G C13A | 1.18 |
| U7A U8C C12G C13G | 1.19 |
| U7A U8C C12G C13U | 1.35 |
| U7A U8C G9A U10A U11G C13A | 1.12 |
| U7A U8C G9A U10A U11G C13G | 1.12 |
| U7A U8C G9A U10A U11G C13U | 1.17 |
| U7A U8C G9A | 1.74 |
| U7A U8C G9A U10A U11C C12A C13G | 1.18 |
| U7A U8C G9A U10A U11C C12A C13U | 1.25 |
| U7A U8C G9A U10A U11C C12A C13A | 1.14 |
| U7A U8C C12A | 1.42 |
| U7A U8C C12U | 1.49 |
| U7A U8C C12G | 1.18 |
| U7A U8A U10G U11G C13G | 1.12 |
| U7A U8A U10G U11G C13U | 1.5 |
| U7A U8A U10G U11G C13A | 1.07 |
| U7A U8A U10G U11G | 1.38 |
| U7A U8A U11C C12A C13A | 1.02 |
| U7A U8A U11C C12A C13G | 1.42 |
| U7A U8A U11C C12A C13U | 1.69 |

| Variant | aptazyme ON/OFF ratio |
| --- | --- |
| U7A U8C G9A U10A U11C C12U | 1.09 |
| U7A U8C G9A U10A U11C C12G | 1.21 |
| U7A U8C G9A U10A U11C C12A | 1.15 |
| U7A U8C G9A U10A U11C C13U | 1.04 |
| U7A U8C G9A U10A U11C C13G | 1.03 |
| U7A U8C G9A U10A U11C C13A | 1.02 |
| U7A U8C G9A U10C C12A C13G | 1.18 |
| U7A U8C G9A U10C C12A C13U | 1.13 |
| U7A U8C G9A U10C C12A C13A | 1.2 |
| U7A U8C G9A U10A C12A C13U | 1.36 |
| U7A U8C G9A U10A C12A C13G | 1.22 |
| U7A U8C G9A U10A C12A C13A | 1.2 |
| U7A U8C G9A U10A C13G | 1.07 |
| U7A U8C G9A U10A C13A | 1.22 |
| U7A U8C G9A U10A C13U | 1.2 |
| U7A U8A U11A C12A C13G | 1.28 |
| U7A U8A U11A C12A C13A | 1.33 |
| U7A U8A U11A C12A C13U | 1.26 |
| U7A U8A U10G U11G C12G C13U | 1.4 |
| U7A U8A U10G U11G C12G C13G | 1.09 |

— the RNAGym collection of RNA variant scans (doi:10.1021/acssynbio.7b00057)
